The source of these data is publication PMC9243137, “Structural and electrophysiological basis for the modulation of KCNQ1 channel currents by ML277” (Nature Communications, 2022).

In one data set the target is T1, Calmodulin (UniProt P0DP23 1-149).
T1 construct: Calmodulin; DNA a gift of the Wayne Chen lab; model built from residues 10 to 146; Sample held 0.5 mM CaCl2; also called CaM; Ca2+/CaM; source: tsA201 cells, co-transfected with xKCNQ1 (pcDNA3), co-purified with xKCNQ1
The data set is described as follows: cryo-EM structure; xKCNQ1(67-610) co-expressed with CaM in tsA201 cells, complex purified in DDM/CHS, 0.5 mM CaCl2; grids without and with 100 uM ML277; C4 symmetry imposed. The following applies: both partners purified.

Data set [1] concerns the molecule itself. The description is as above.

B1: Xenopus laevis KCNQ1, residues 67-610 (truncated, biochemically stable form) (domain or fragment, UniProt P70057 67-610, looked up)
chain: ATDPPRPTINLDPRVSIYSGRRPLLSRTNIQGRVYNFLERPTGWKCFVYHFTVFLIVLICLIFSVLSTIQQYNNLATETLFWMEIVLVVFFGAEYVVRLWSAGCRSKYVGVWGRLRFARKPISVIDLIVVVASVIVLCVGSNGQVFATSAIRGIRFLQILRMLHVDRQGGTWRLLGSVVFIHRQELITTLYIGFLGLIFSSYFVYLAEKDAIDSSGEYQFGSYADALWWGVVTVTTIGYGDKVPQTWIGKTIASCFSVFAISFFALPAGILGSGFALKVQQKQRQKHFNRQIPAAASLIQTAWRCYAAENPDSATWKIYIRKQSRNHHLMSPSPKPKKSAMVKKKKIRTERDEGSTDKMLNIPHITYDHVADDRKNDGYSVESYENTVRKPFGFLDPSTGPFIRTSSFTDDLDMEGDTLLTPITHISELKEHHRAAIKVIRRMQYFVAKKKFQQARKPYDVRDVIEQYSQGHLNLMVRIKELQRRLDQSLGKPSLFLSVSDKVKDKGINTIGSRLNRVEDKVTQMDHKLNLITDMLHHLLTNQQ
notes: KCNQ1 (Kv7.1) of Xenopus laevis, NP_001116347.1, residues 67-610; N- and C-termini truncated as in Sun and MacKinnon 2017; model built from residues 95 to 556 (67-94, 206-214, 385-496 disordered); Human KCNQ1 numbering is +10 against xKCNQ1; A preScission protease site stood between the channel and the C-terminal GFP-6xHis tag; residues of the site may be left after cleavage; Four subunits (C4 …)
Take B1: the binding result (with Calmodulin; in data set [1]) was “binds” each time.
